# Experiment: label from the status in PepcDB records
row,Sequence,protein production
1,MKKGRGYVYKLEYHLIWATKYRHQVLVDEVADGLKDILRDIATQNGLELVALEVMPDYVHLLLGATPQHVIPDFVKALKGASARRMFSAFPHLKQPHWGGNLWNPSYCVLTVSEHTRAQIQQYIENQHAAE,not failed
2,MPVLLSRLASRTNPSLANRCAMDTWLRSAIDYISSWIEFQQTTIQQPGVIVAFAHRGEVVAEHAFGVANLDTGEKLTPRHRCRIASHSKSFTSAGIMKLREQRKLRLDDSVGQYVGGLHPRVAETTIAQLLSHSAGLTRDGADSGQFIDRRPYLNAEELLAELKLPTAIEPGTRFKYSNHGFGLLGLVIEAVTKEPYTAWIKREIIEPAGLRETEPDAPLPKGAAFARGHTRKVPLGERCVIPGDNPTHAMASATGFAATAADTARFFAQLAPNARKSVLSVASRREMTRHHWRIPQSFEAYYGLGIGAGKLDGWDWLGHGGHFQGYISRTCAIPACELAISIISNSIDGAAPFWMDGAMQILRTFKTRGAPDRRVRDWTGRWWTIWGATDLVPMGDRVLIANPQFNNPFMDAGEIEVTGRDTGRIAAAAGHSSHGEPVRRVRDARGKVSDIWLAGANVKPASVVAREIARQYPPRKRRPTP,failed
3,MTKLPATSDIYISFFMFTTNLQPDNLDYRRIVVAHIKKLQRFGYSGFEFPIAPGLPENYAQDLENYTNLRHYLDSEGLENVKISTNVGATRTFDPSSNYPEQRQEALEYLKSRVDITAALGGEIMMGPIVIPYGVFPTTDFNEPIWSDELQEHLKVRYANAQPILDKLGEYAEIKKVKLAIEPITHWETPGPNKLSQLIEFLKGVKSKQVGVVIDSAHEILDGEGPEIFKTQVEYLAQQGRLHYVQVSPPDRGALHTSWLPWKSFLTPIVKVYDGPIAVEIFNAIPAFTNSLRLTRRKFWIPDEDPPNQYPNAYDIADEAIKVTRKELKKIGSK,not failed
4,MEGKEEDVRVGANKFPERQPIGTSAQSDKDYKEPPPAPFFEPGELSSWSFWRAGIAEFIATFLFLYITVLTVMGVKRSPNMCASVGIQGIAWAFGGMIFALVYCTAGISGGHINPAVTFGLFLARKLSLTRALYYIVMQCLGAICGAGVVKGFQPKQYQALGGGANTVAHGYTKGSGLGAEIIGTFVLVYTVFSATDAKRNARDSHVPILAPLPIGFAVFLVHLATIPITGTGINPARSLGAAIIYNKDHSWDDHWVFWVGPFIGAALAALYHVVVIRAIPFKSRS,failed
5,MTSTPGISDSLLSSMNGSGANNNTSAISETQDRFMKLLIAQMKNQDPLNPMDNAEVTSQMAQLSTVTGIEKMNASLSTFISSMQATQALQASSLIGNTVLVEGNSTYLAPAETEGESAAYLGVELPIGADKLTVNIKNGAGNVVKTITVTNQPAGISSLGWNGYGDDGTKLPDGRYTIEATATTGNSSVASTPLSYEQVMSVSTGSDGVKLNLSNLAAITTDQIKQIF,not failed
6,MPRSQADSALAEAERHLAAGRSQQAREAFRRARLFFHRCADTDGEAIVLVRLGEAELAAGHLASAKEALSDALALLSHETDPSARADALHLMGSLKNAEKNAPERDRLWAEAVSAHRDHGNKAGEARVLRDQAQVAKATGKDDLAFDLFSRAHRLYADLGHSFHEAMILLEIGQLHRAQGRADLAHDALERAADLFRVNGDTLDEGRTRLTLARLLRDLGDKETALRDLTLCAKLFGANGHLGGQAEALIDLARLEAAKAPKAALKMLHQARALAARSGIPSLQTQAASEIARLDQAALKDTP,failed
7,MSDLQSLQPKLLWQWFDQICAIPHPSYKEEQLAQFIINWAKTKGFFAERDEVGNVLIRKPATVGMENRKPVVLQAHLDMVPQANEGTNHNFDQDPILPYIDGDWVKAKGTTLGADNGIGMASALAVLESNDIAHPELEVLLTMTEERGMEGAIGLRPNWLRSEILINTDTEENGEIYIGCAGGENADLELPIEYQVNNFEHCYQVVLKGLRGGHSGVDIHTGRANAIKVLLRFLAELQQNQPHFDFTLANIRGGSIRNAIPRESVATLVFNGDITVLQSAVQKFADVIKAELALTEPNLIFTLEKVEKPQQVFSSQCTKNIIHCLNVLPNGVVRNSDVIENVVETSLSIGVLKTEDNFVRSTMLVRSLIESGKSYVASLLKSLASLAQGNINLSGDYPGWEPQSHSDILDLTKTIYAQVLGTDPEIKVIHAGLECGLLKKIYPTIDMVSIGPTIRNAHSPDEKVHIPAVETYWKVLTGILAHIPSR,not failed
8,MSDQPMNEVQDNAAPANPWLELRRLTPARIALGRTGTSLPTCAQLDFQAAHAQARDAVHLAFDHAAISAQLAEKGRETILLHSAAADRDSYLQRPDLGRRLNDESAQTLRDYAAAHPGGLDLAVVVADGLSALAVHRHAVPFLTRLEEQASAEGWTLSPVLMVEQGRVAVADEIGELLGAKMVVILIGERPGLSSPDSLGLYFTYAPKVGLNDAHRNCISNVRLEGLSYAMAAHRLLYLMREACKRQISGVSLKDEAQLNTLESDDSAENSDRKIGNFLLDGPAVPH,not failed
9,KERERLEEKLEDANERIAELVKLEERQRIARDLHDTLGQKLSLIGLKSDLARKLIYKDPEQAARELKSVQQTARTSLNEVRKIVSSMKGIRLKDELINIKQILEAADIMFIYEEEKWPENISLLNENILSMCLKEAVTNVVKHSQAKTCRVDIQQLWKEVVITVSDDGTFKGEENSFSKGHGLLGMRERLEFANGSLHIDTENGTKLTMAIPNNSK,not failed
10,MLTTFLATVIGWYLVIVSLFLLFHNEHAKSAMAEIIAHRGSQLIMAIVTLITGLLLVVSHNIWVMGWPVVITLFAWLVLLGGLIRFLCPDTAVRIGQSFVDNPMRLKIAAVIFFIIGLFLLFNVYYVYLK,failed
11,MKDSAQNFSTEKTGLKPVIRKIYDCLFDSYGPQGWWPLTELREAEGTNPTKTGSVQGYHPADYTYPQTRNQRFEIICGALLTQNTSWIQVEKALLNLKDLLSLKQINSFSPETIISLDTEILKEAIRPAGYYNQKAMRLKNLACWFLELENRIPARKELLSLKGVGPETADSILLYAFKQPSFVVDAYTKRIVTNLGLADEKAGYNEIKALFEENLPEDTTVYQEYHALLVEHAKRYYQKKSIRTNDIILKHVF,failed
12,MISLQFFITAFVVVLAPGTGVIYTLAIGLGRGRSAAAWAALGCTLGILPHLAAAILGLAAILHSSALLFQLVKAAGVAYLLYLAWQALRSDGALAIRSEHSHQPGWRIAWRGALINILNPKLSVFFLALLPPFLSGNPASATAEMSLLGLVFMAMTFAVFLLYGAFASAARTYLMQSERALRWMGRGFALVFAGLAARLAMERA,failed
13,MKNYTLISPCFFGMEKMLAREITNLGYEIIKTEDGRITYKTDEFGIAKSNMWLRCAERVHLKIAEFEAKSFDELFENTKRINWSRYIPYGAQFPISKASSIKSKLYSTPDVQAIVKKAIVESLKKSYLEDGLLKEDKEKYPIFVFIHKDKVTISIDTTGDALHKRGYREKANKAPIRETLAAGLIYLTPWKAGRVLVDPMCGSGTILIEAAMIGINMAPGLNREFISEKWRTLDKKIWWDVRKDAFNKIDNESKFKIYGYDIDEESIDIARENAEIAGVDEYIEFNVGDATQFKSEDEFGFIITNPPYGERLEDKDSVKQLYKELGYAFRKLKNWSYYLITSYEDFEYEFGQKADKKRKLYNGMLKTNFFQYPGPKPPRNNK,not failed
14,MRKILEKVRRNRTYSFGKDLYDRTMRDDVAGLAAQLAYFFLLAIFPGLVFLITLLGFIDLQTESVLNLLEPYVPEDAMSLIEVNVDKVVNEQNGGLLSFGLLSMLWFASNGVNAVMNAFNRAYDVTETRSFIKTRALSIVFTLAIIFMIVFALIVPVFGQVIGAAVFKAIGLSDSFSYVWSITRLVASFFVLFALFSFLYTFAPDRKLKRREVISGATFATVGWIVVSYSFAYYVDKFANYANTYGGLGGIIILMLWFYLTGWVILLGGEINGLLHHYRTGDNNSRNEK,failed
15,EQMTRDEIEYMLSKSEATLDAEEIEMLQGVFSLDEMMAREVMVPRTDAFMIDINDDPLENIQEILKQSFSRIPVYDVDKDKIIGLIHTKRLLESGFRQGFDQINMRKMLQEPLFVPETIFVDDLLRQLRNTQNQMAILLDEYGGVAGLVTLEDLLEEIVGEID,failed
16,MSKEPIIKLDNIDVTFHQKKREINAVKDVTIHINQGDIYGIVGYSGAGKSTLVRVINLLQEPSAGKITIDDQVIYDNKVTLTSTQLREQRREIGMIFQHFNLMSQLTAEQNVAFALKHSGLSKEAKAAKVAKLLELVGLSDRAQNYPSQLSGGQKQRVAIARALANDPKILISDESTSALDPKTTKQILALLQDLNKKLGLTIVLITHEMQIVKDIANRVAVMQNGKLIEEGSVLDIFSHPRESLTQDFIKIATGIDEAMLKIEQQEVVKNLPVGSKLVQLKYAGHSTDEPLLNQIYKEFEVTANILYGNIEILDGIPVGEMVVILSGDEEKLRQACQAITDSQVQLTLLKEGGKA,failed

# From a protein production outcome set (Wang et al. 2014)
